# B1: Anosmin-1 (Homo sapiens), P23352 (parent)
# chain: MVPGVPGAVLTLCLWLAASSGCLAAGPGAAAARRLDESLSAGSVQRARCASRCLSLQITRISAFFQHFQNNGSLVWCQNHKQCSKCLEPCKESGDLRKHQCQSFCEPLFPKKSYECLTSCEFLKYILLVKQGDCPAPEKASGFAAACVESCEVDNECSGVKKCCSNGCGHTCQVPKTLYKGVPLKPRKELRFTELQSGQLEVKWSSKFNISIEPVIYVVQRRWNYGIHPSEDDATHWQTVAQTTDERVQLTDIRPSRWYQFRVAAVNVHGTRGFTAPSKHFRSSKDPSAPPAPANLRLANSTVNSDGSVTVTIVWDLPEEPDIPVHHYKVFWSWMVSSKSLVPTKKKRRKTTDGFQNSVILEKLQPDCDYVVELQAITYWGQTRLKSAKVSLHFTSTHATNNKEQLVKTRKGGIQTQLPFQRRRPTRPLEVGAPFYQDGQLQVKVYWKKTEDPTVNRYHVRWFPEACAHNRTTGSEASSGMTHENYIILQDLSFSCKYKVTVQPIRPKSHSKAEAVFFTTPPCSALKGKSHKPVGCLGEAGHVLSKVLAKPENLSASFIVQDVNITGHFSWKMAKANLYQPMTGFQVTWAEVTTESRQNSLPNSIISQSQILPSDHYVLTVPNLRPSTLYRLEVQVLTPGGEGPATIKTFRTPELPPSSAHRSHLKHRHPHHYKPSPERY
# Variants of: B1
# Conditions: with fgfr1_human FGFR1, P11362
# fgfr1_human FGFR1, P11362, sequence (P11362 whole entry, looked up): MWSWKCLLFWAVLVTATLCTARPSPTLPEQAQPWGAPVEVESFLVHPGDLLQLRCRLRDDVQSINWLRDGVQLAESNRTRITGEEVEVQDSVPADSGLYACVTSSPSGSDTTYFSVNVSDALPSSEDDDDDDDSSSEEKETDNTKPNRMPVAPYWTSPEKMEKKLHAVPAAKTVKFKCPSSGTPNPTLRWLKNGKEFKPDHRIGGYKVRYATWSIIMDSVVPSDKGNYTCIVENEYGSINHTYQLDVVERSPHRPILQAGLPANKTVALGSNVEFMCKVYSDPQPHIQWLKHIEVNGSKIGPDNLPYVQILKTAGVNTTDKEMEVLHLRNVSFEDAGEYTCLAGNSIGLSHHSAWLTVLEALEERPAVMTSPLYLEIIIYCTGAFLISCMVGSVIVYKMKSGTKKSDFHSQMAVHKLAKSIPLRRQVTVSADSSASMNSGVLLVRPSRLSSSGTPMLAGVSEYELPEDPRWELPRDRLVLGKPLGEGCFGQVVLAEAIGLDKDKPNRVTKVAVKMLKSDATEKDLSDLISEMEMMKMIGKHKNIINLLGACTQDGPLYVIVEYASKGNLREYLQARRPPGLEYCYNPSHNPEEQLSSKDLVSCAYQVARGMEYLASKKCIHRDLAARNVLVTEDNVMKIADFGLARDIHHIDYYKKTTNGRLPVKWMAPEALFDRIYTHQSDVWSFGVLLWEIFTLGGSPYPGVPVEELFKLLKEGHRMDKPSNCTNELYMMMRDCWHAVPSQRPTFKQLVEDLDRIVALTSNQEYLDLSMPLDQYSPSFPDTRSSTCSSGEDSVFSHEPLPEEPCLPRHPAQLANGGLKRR
row,Variant,effect of a mutation on the interaction
1,N267K,disrupting interaction
